Measured values reported in the supplement of paper PMC12764529.
± gives the half width of the 95% confidence interval.

Key:
[1] = folding stability dG unfold (combined trypsin and chymotrypsin); higher = more stable
Summary of the method: (§1)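 Unfolding free energy was derived, per protease or combined, against a sequence-predicted unfolded-state K50 and a shared folded-state K50, starting from K50 inferred by Bayesian fitting of sequencing counts. Digestion with trypsin and chymotrypsin was carried out on designed mini-proteins under 80 residues without cysteine in a PA-tagged cDNA display construct. Only designs with AlphaFold2 dimer inter-PAE above 15 were kept.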

[2] = folding stability dG unfold from chymotrypsin proteolysis; higher = more stable
Summary of the method: as §1

[3] = folding stability dG unfold from trypsin proteolysis; higher = more stable
Summary of the method: as §1

Sequence	folding stability dG unfold [1]	folding stability dG unfold [2]	folding stability dG unfold [3]
SAGGSAGGSAEPPEVRIRLEVRLLPDGTLEVTAEIEVDGKTYRITVTVDAKTNEIVSVSIEPSAGGSAGGSA [r18_459_TrROS_Hall]	4.3 ± 0.46 kcal/mol	3.89 ± 0.21 kcal/mol	4.44 ± 0.36 kcal/mol
SAGGSAGGSAGGPYEKAVEAAKALGSEDKPITIKLPNGTTVTLKPSELPSLPYEDPIVLLSAGGSAGGSAGG [r7_863_JUSTAS]	0.353 ± 0.17 kcal/mol	0.259 ± 0.18 kcal/mol	0.367 ± 0.093 kcal/mol
SAGKTIVIKAKTAEEAINALLKELKKKGEKVKITVTVYDKNGKEVYRVTIEIDPKEKGKIKIKVEKVPSAGG [r19_85_TrROS_Hall]	3.33 ± 0.44 kcal/mol	3.65 ± 0.2 kcal/mol	2.19 ± 0.22 kcal/mol
SAGGGSSVLSETVSVDPNNVTTTTTTYKAGDTTSTTTTTTTTTPPVPNLPLPPPPPVSPEAIALGLLLSAGG [r13_760_JUSTAS]	0.481 ± 0.059 kcal/mol	-0.0352 ± 0.18 kcal/mol	0.648 ± 0.052 kcal/mol
SAGGMKVTRLPNALVFEYPLPNSTLRIVVTPGDGTYTLELYRDGKLIATFPSPGPVADLVEAAIKALSAGGS [r8_276_TrMRF]	3.01 ± 0.073 kcal/mol	3.2 ± 0.033 kcal/mol	2.55 ± 0.053 kcal/mol
SAGGSAGGSAGGKIKILKKNKTKEEIKKELAEKYNVKKIEIKPIKGNTYLVEIEVEPEESAGGSAGGSAGGS [r10_1219_TrMRF]	0.292 ± 0.25 kcal/mol	0.634 ± 0.22 kcal/mol	-0.364 ± 0.24 kcal/mol
SLTPEQVEKIAKTIADVFRKLGYELKVKTKVFEVNNVPVAVVEFELIDKDGKPRRFRFVIHPDGTIEIFPSA [r9_1027_TrMRF]	> 6 kcal/mol	6.18 ± 0.092 kcal/mol	4.15 ± 0.07 kcal/mol
SAKKKKVKKKEIKVTLKLKLPGAKIKSVKVEKKGDKLVITVEIELENGEKLKLTAVFDKDGKIVKIELESAG [r14_719_TrROS_Hall]	1.74 ± 0.38 kcal/mol	1.96 ± 0.061 kcal/mol	1.11 ± 0.11 kcal/mol
SAGGSAGGSMFEEEEIEIERPDGTTIKVKVEILPDGTRVLTITDPKEGKTTTVTLSPNEEILLSAGGSAGGS [r20_45_JUSTAS]	1.6 ± 0.12 kcal/mol	0.464 ± 0.049 kcal/mol	2.15 ± 0.12 kcal/mol
PLVLRLPDGAEAVRVEFFPERNTVVAFFRAPDRLLVVEVRFEPVGGGLLAPVRVRALPVPPTPEQLRLLAES [r1_154_TrMRF]	2.17 ± 0.093 kcal/mol	2.58 ± 0.089 kcal/mol	1.35 ± 0.098 kcal/mol
SAGNPDYIPIPFRVWIMRRVPPGMSKEQAKKNPDMYVMVPIPVKFYIDPDTGRIRVENPDGKTIEFPLPSAG [r5_701_TrROS]	2.68 ± 0.096 kcal/mol	3.15 ± 0.07 kcal/mol	2.11 ± 0.03 kcal/mol
SAGGSAGGPIDLDDIKIEEIEHERNPNGMMYHEVTIRFPGGKIPVWFHPNMSLDNAVDMLRAFISAGGSAGG [r6_233_TrROS]	1.19 ± 0.11 kcal/mol	0.814 ± 0.11 kcal/mol	1.4 ± 0.092 kcal/mol
SAGGSAGGSAGGPPYEVNIYIKFRPPDGKPPTFPIDVNVNDPEDAKDELEDNFPNMEIVSAGGSAGGSAGGS [r10_1248_TrROS]	0.919 ± 0.23 kcal/mol	0.996 ± 0.15 kcal/mol	0.592 ± 0.051 kcal/mol
SAGGMPIKELTAEEIAALLKEKLGVDVEIEEVKVTVERDENGNYVLRIEVKFKETNETITLEIVLPKSAGGS [r16_42_TrROS_Hall]	3.86 ± 0.14 kcal/mol	4.2 ± 0.16 kcal/mol	2.94 ± 0.093 kcal/mol
SAGGSAGGSAGMTYRVRIENADGEVVTIEISADELREKGLTLEELLPPNARIVEVEEVEPSAGGSAGGSAGG [r11_829_TrROS_Hall]	3.63 ± 0.09 kcal/mol	3.61 ± 0.063 kcal/mol	3.8 ± 0.16 kcal/mol
DDWVTLPVEIWIPVRNPDGKPLTPEQVKETANSIRNELARNHGIDVEVDVKVEPVGPNGYYRINATVTIRPS [r1_231_TrROS]	2.72 ± 0.14 kcal/mol	2.98 ± 0.055 kcal/mol	2.23 ± 0.1 kcal/mol
SAENGKWVEVELPIEIWMGNDQLDNFIEEARDIARKHGFEITDIPIKYEPSPDGYRRATIPVKITVPLPSAG [r14_109_TrROS]	1.13 ± 0.14 kcal/mol	1.06 ± 0.088 kcal/mol	1.06 ± 0.04 kcal/mol
SAGGSAGGSMLPADTKVIKITVESTLPDGSTTTHTVTVPSSVPLEAVKEQLPPGATITEVVLASAGGSAGGS [r12_597_JUSTAS]	1.16 ± 0.059 kcal/mol	0.931 ± 0.011 kcal/mol	1.44 ± 0.064 kcal/mol
SAGYWEFEIELPNGRKIEIEWQRMNGRYWFKIEVLDDNGKPVREVPIPFPNPEMPFEQMIKNAVKKILDSAG [r5_630_TrROS]	3.41 ± 0.15 kcal/mol	3.898 ± 0.032 kcal/mol	2.44 ± 0.047 kcal/mol
SAGGSAGGSAGDAEEIADEIRENMYGPDGKYVPKEVEIKEIEPPPGQLKVEIEMPPGMPISAGGSAGGSAGG [r17_519_TrROS]	1.32 ± 0.16 kcal/mol	0.954 ± 0.077 kcal/mol	1.81 ± 0.13 kcal/mol
SAGGSAGGSTAKEIADKLGFDNVEIKPTKPVEQRKDPNGKWRRQYVYTIKIRNPDGREWTIPISAGGSAGGS [r12_221_TrROS]	0.528 ± 0.13 kcal/mol	0.449 ± 0.24 kcal/mol	0.626 ± 0.093 kcal/mol
